Laboratory results taken from the RNAGym collection of RNA variant scans (doi:10.1093/molbev/msab373).

B1: Azoarcus group I ribozyme (parent)
chain: GUGCCUUGCGCCGGGAAACCACGCAAGGGAUGGUGUCAAAUUCGGCGAAACCUAAGCGCCCGCCCGGGCGUAUGGCAACGCCGAGCCAAGCUUCGGCGCCUGCGCCGAUGAAGGUGUAGAGACUAGACGGCACCCACCUAAGGCAAACGCUAUGGUGAAGGCAUAGUCCAGGGAGUGGCGAAAGUCACACAAACCGG

Variants of: B1
Assay: reverse-splicing fitness (ratio to wild type); higher = more active; in vitro selection; Mg2+ level not given
In short: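 An in vitro group I ribozyme library with randomized positions was T7-transcribed and gel-purified. In triplicate, 10 pmol RNA in EPPS pH 7.5 was reacted with 50 pmoles of a 30-nt RNA substrate for 1 h at 37 °C across several added MgCl2 levels (1–48 mM), then stopped with EDTA. Products were reverse transcribed from a substrate-complementary primer, PCR-amplified and sequenced (HiSeq 4000). Fitness is a variant's read proportion after selection over that before, normalised to wild type.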

Point of comparison: A111U A120G A145C C150U C169A U176A, reverse-splicing fitness 0.012. Against it:
- A111U A120G — higher, 0.174
- A111U A120G A145G C150U — higher, 0.133
- A111U A120G A145G C150A — higher, 0.0285
- A111U A120G A145G C150G — higher, 0.0235
- A111U A120G A145C U176C — higher, 0.0455
- A111U A120G A145C U176A — higher, 0.038
- A111U A120G A145C U176G — lower, 0.00566
- A111U A120C A145C C150U C169U — higher, 0.05
- A111U A120C A145C C150U C169A — lower, 0.00788
- A111U A120C A145C C150U C169G — lower, 0.00744
- A111U A120C C150G C169A — lower, 0.00861
- A111U A120C C150G C169G — lower, 0.0073
- A111U A120C C150G C169U — higher, 0.02
- A111U A120C C169G U176A — higher, 0.0144
- A111U A120C C169G U176G — lower, 0.00402
- A111U A120C C169G U176C — higher, 0.0168
- A111U A120C U176G — higher, 0.0439
- A111U A120C U176C — higher, 0.28
- A111U A120C U176A — higher, 0.277
- A111U A120C C150G U176A — lower, 0.0104
- A111U A120C C150G U176G — lower, 0.00366
- A111U A120C C150G U176C — higher, 0.0262
- A111U A120G A145G C150A C169G U176G — lower, 0.00526
- A111U A120G A145G C150A C169G U176A — higher, 0.0198
- A111U A120G A145G C150A C169G U176C — higher, 0.0294
- A111U A120G A145C C150G C169A — higher, 0.0154
- A111U A120G A145C C150G C169G — higher, 0.0237
- A111U A120G A145C C150G C169U — higher, 0.0237
- A111U A120G A145C C150U C169A U176G — lower, 0.00531
- A111U A120G A145C C150U C169A U176C — lower, 0.00998
- A111U A120G A145G C150G C169G U176A — lower, 0.00971
- A111U A120G A145G C150G C169G U176C — lower, 0.0108
- A111U A120G A145G C150G C169G U176G — lower, 0.00518
- A111U A120C A145G C150G U176G — lower, 0.00627
- A111U A120C A145G C150G U176C — higher, 0.0344
- A111U A120C A145G C150G U176A — higher, 0.0125
- A111U A120C A145U C169U U176G — lower, 0.00586
- A111U A120C A145U C169U U176A — higher, 0.0319
- A111U A120C A145U C169U U176C — higher, 0.0439
- A111U A120C A145U C169U — higher, 0.168
- A111U A120C A145U C169G — lower, 0.00837
- A111U A120C A145U C169A — lower, 0.0103
- A111U A120G A145C C169A U176C — higher, 0.0194
- A111U A120G A145C C169A U176G — lower, 0.00414
- A111U A120G A145C C169A U176A — higher, 0.0217
- A111U A120C A145U C150U — higher, 0.401
- A111U A120C A145U C150G — higher, 0.0712
- A111U A120C A145U C150A — higher, 0.061
- A111U A120G A145C C150A C169U — lower, 0.0118
- A111U A120G A145C C150A C169A — lower, 0.00967
- A111U A120G A145C C150A C169G — higher, 0.0146
- A111U A120C A145C C169A U176A — lower, 0.00934
- A111U A120C A145C C169A U176C — lower, 0.00538
- A111U A120C A145C C169A U176G — lower, 0.00493
- A111U A120G A145C C150G U176C — higher, 0.0143
- A111U A120G A145C C150G U176G — lower, 0.00302
- A111U A120G A145C C150G U176A — lower, 0.00783
- A111U A120C A145U C150U C169G U176C — lower, 0.0102
- A111U A120C A145U C150U C169G U176G — lower, 0.00445
- A111U A120C A145U C150U C169G U176A — lower, 0.0113
- A111U A120C A145C C150U U176A — higher, 0.0815
- A111U A120C A145C C150U U176C — higher, 0.0967
- A111U A120C A145C C150U U176G — higher, 0.019
- A111U A120C A145U U176C — higher, 0.3
- A111U A120C A145U U176A — higher, 0.259
- A111U A120C A145U U176G — higher, 0.0572
- A111U A120G A145C C150U C169G U176A — higher, 0.0293
- A111U A120G A145C C150U C169G U176G — lower, 0.00545
- A111U A120G A145C C150U C169G U176C — higher, 0.0226
- A111U A120C C150U C169G U176G — lower, 0.00495
- A111U A120C C150U C169G U176C — higher, 0.0132
- A111U A120C C150U C169G U176A — higher, 0.0138
- A111U A120C A145U C150A C169A U176A — lower, 0.0108
- A111U A120C A145U C150A C169A U176C — lower, 0.00867
- A111U A120C A145U C150A C169A U176G — lower, 0.00488
- A111U A120C A145G C150A C169A U176G — lower, 0.00601
- A111U A120C A145G C150A C169A U176C — higher, 0.0204
- A111U A120C A145G C150A C169A U176A — higher, 0.0184
- A111U A120C A145U C150U C169G — lower, 0.00826
- A111U A120C A145U C150U C169U — higher, 0.112
- A111U A120C A145U C150U C169A — lower, 0.0105
- A111U A120G A145G C150G U176A — lower, 0.0103
- A111U A120G A145G C150G U176C — higher, 0.0156
